This series concerns the target Arg224 (UniProt position 224, YHALYRYFVEL). Briefly: electrophysiology.

For orientation: pKa means the pH at which an ionisable group is half protonated.

With “TASK-2 (K2P5.1, KCNK5) two-pore-domain potassium channel (Mus musculus)”, for the setting “pHo-gated channel, closed to open on alkalinization, non-concatenated WT, cited from earlier work”, the pKa is 8.0.
Turning to “TASK-2 WT-WT concatenated tandem dimer (Mus musculus; deletion of the C-terminal 148 residues (after V354) in the first protomer; insertion of L355-D356 linker; no substitution at R224 in either protomer)”, the pKa (Bath (mM): 67.5 Na2SO4, 4 KCl, 1 K gluconate, 2 CaCl2, 1 MgCl2, 105 sucrose (standard solution). The article does not state explicitly which bath was used for Figure 5. Pipette: 140 mM KCl., 10 mM Hepes/Tris, MES for pH 5.0-6.5, AMPSO for pH 8.5-9.0, CAPS for pH 9.5-11.0, concatenated WT-WT channel, pHo gating) amounted to 8.2±0.15.

Values taken from publication PMC3026807.
